Earlier results as cited in article PMC3522611.

Molecular target: EGFR (Homo sapiens) (UniProt P00533)

HB-EGF (from UniProt Q99075)
Kd: 3.8 nM
